Assay results from article PMC10361993, “Amyloid modifier SERF1a interacts with polyQ-expanded huntingtin-exon 1 via helical interactions and exacerbates polyQ-induced toxicity” (Communications Biology, 2023).
Values joined by “and” are separate entries in the source; they are usually repeats but may differ in a detail not shown here. Equal entries are not always repeated. Each block holds one molecule with its values, some of them ahead of it. Where a SMILES comes first, the peptide text is derived from it.

B1: NT17 peptide (N-terminal 17 amino acids of Htt) (peptide, UniProt P42858 1-17, looked up)
peptide: MATLEKLMKAFESLKSF
notes: N-terminal 17 amino acids of huntingtin; source: synthetic peptide (peptide synthesis core, Genomics Research Center, Academia Sinica)
B2: Human SERF1a (small EDRK-rich factor 1a), short form (natural protein, UniProt O75920-2 1-62, looked up)
chain: MARGNQRELARQKNMKKTQEISKGKRKEDSLTASQRKQRDSEIMQEKQKAANEKKSMQTREK
notes: Small EDRK-rich factor 1a, human, short form of 62 residues (the long form has 110); full-length cDNA amplified by PCR from GenBank BC021174; 15N-labelled (M9 minimal medium) for the NMR titration; also called rSERF1a; recombinant SERF1a; source: E. coli BL21(DE3), purified (Ni-Sepharose, thrombin cleavage, Mono-S); not shown: His-tag, N-terminal, cleaved

Key:
SERF1a [1] = molecular target: T1, SERF1a (Homo sapiens, UniProt O75920); assay: Isothermal titration calorimetry of Htt peptides with SERF1a; format: binding; details: ITC, 250 μM SERF1a injected into 50 μM peptide, 10 mM PB pH 7.4, 26 °C
T1 construct: Full-length SERF1a cDNA was amplified by PCR; His-tag with thrombin site (N, cleaved yes); made in house; host or cells: E. coli BL21(DE3), pET14b
T1 sequence (O75920 1-62 isoform O75920-2): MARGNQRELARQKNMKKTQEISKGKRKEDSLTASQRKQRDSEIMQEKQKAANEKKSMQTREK
Description: MicroCal iTC200 (GE) was used for ITC experiments. SERF1a was in 10 mM PB, pH 7.4. For Htt-0, Htt-1, Htt-2, Htt-4, and Htt-5, 300 μM SERF1a in syringe was injected into the cell containing 30 μM Htt peptides. The volume of each injection was 2 μl. For Htt-3 and NT17, 250 μM SERF1a in syringe was injected into the cell containing 50 μM Htt peptides. The volume of each injection was 1.5 μl. The cell of the calorimeter was maintained at 26 °C. ITC analysis software MicroCal Analysis Launcher (GE Healthcare) was used for data analysis.

SERF1a [2] = molecular target: T1, SERF1a; assay: Intrinsic tyrosine fluorescence titration of Aβ or α-synuclein with SERF1a; format: binding; details: tyrosine fluorescence quenching upon SERF1a titration, fitted
[3] = ThT assay of Aβ and α-synuclein fibrillization with and without SERF1a; format: physicochemical; details: Aβ 25 μM, α-synuclein 50 μM, 25 °C, shaking
Description: For SERF1a and α-synuclein aggregation assay, α-Synuclein at 50 μM in Tris buffer (10 mM Tris-HCl, pH 7.4, and 150 mM NaCl) was incubated with different SERF1a concentrations in a 384-well ELISA plate. ThT at 10 μM was added in the samples. The samples were constantly rotated at 400 rpm during the incubation. ThT fluorescence was measured at 485 nm with an excitation of 442 nm at 25 °C by a microplate reader (SpectraMax M5; Molecule Devices) with SoftMax Pro 5.4. The data from independent trials were averaged, and the standard deviations were calculated.
were incubated at 25 °C with continuous shaking at 800 rpm. ThT fluorescence at 485 nm was monitored with excitation at 442 nm. The error bars represent standard deviation.

[4] = molecular target: B2; assay: ITC; 250 μM SERF1a in syringe injected into 50 μM Htt-3 or NT17 in the cell; 10 mM PB pH 7.4, 26 °C, 1.5 μl injections; details: both partners purified
[5] = molecular target: the molecule itself; assay: AUC; sedimentation velocity; NT17 and Htt-3 at 50 μM, Htt-0, Htt-1, Htt-2, Htt-4 and Htt-5 at 30 μM, in 10 mM PB pH 7.4, 42,000 rpm for 24 h at 25 °C; c(s) distribution, SEDFIT
[6] = molecular target: B1; assay: ITC; 250 μM SERF1a in syringe injected into 50 μM Htt-3 or NT17 in the cell; 10 mM PB pH 7.4, 26 °C, 1.5 μl injections; details: both partners purified
α-Synuclein, P37840 = assay: other fluorescence titration; tyrosine fluorescence of Aβ or α-synuclein titrated with SERF1a at different concentrations; quenching fitted; details: remark: other sources report otherwise
[7] = molecular target: Htt-3 peptide (four prolines at a/d positions of the polyQ region); assay: ITC; 250 μM SERF1a in syringe injected into 50 μM Htt-3 or NT17 in the cell; 10 mM PB pH 7.4, 26 °C, 1.5 μl injections

Kd (SERF1a [1]): 332 nM
Molecule: CSCC[C@H](NC(=O)[C@H](CC(C)C)NC(=O)[C@H](CCCCN)NC(=O)[C@H](CCC(=O)O)NC(=O)[C@H](CC(C)C)NC(=O)[C@@H](NC(=O)[C@H](C)NC(=O)[C@@H](N)CCSC)[C@@H](C)O)C(=O)N[C@@H](CCCCN)C(=O)N[C@@H](C)C(=O)N[C@@H](Cc1ccccc1)C(=O)N[C@@H](CCC(=O)O)C(=O)N[C@@H](CO)C(=O)N[C@@H](CC(C)C)C(=O)N[C@@H](CCCCN)C(=O)N[C@@H](CO)C(=O)N[C@@H](Cc1ccccc1)C(=O)N1CCC[C@H]1C(=O)N[C@@H](CCC(N)=O)C(=O)N[C@@H](CCC(N)=O)C(=O)N1CCC[C@H]1C(=O)N[C@@H](CCC(N)=O)C(=O)N[C@@H](CCC(N)=O)C(=O)N[C@@H](CCC(N)=O)C(=O)N1CCC[C@H]1C(=O)N[C@@H](CCC(N)=O)C(=O)N[C@@H](CCC(N)=O)C(=O)N1CCC[C@H]1C(=O)N[C@@H](CCC(N)=O)C(=O)N[C@@H](CCC(N)=O)C(=O)N[C@@H](CCC(N)=O)C(=O)N[C@@H](Cc1ccc(O)cc1)C(=O)N[C@@H](CCCCN)C(=O)O [Htt-3] (H-MATLEKLMKAFESLKSFPQQPQQQPQQPQQQYK-OH)

Kd (SERF1a [2]): 20800 ± 8300 nM
Molecule: α-synuclein
effect of SERF1a on fibrillization (ThT assay) [3]: accelerated

Molecule: B1
Ka [4]: 1.38e+07 M⁻¹
Kd [4]: 72.5 nM

Molecule: MATLEKLMKAFESLKSFQQQQQQQQQQQQQQPPP [Htt-0, wild-type Htt peptide of 33 amino acids]
stoichiometry N [5]: 2

Molecule: MATLEKLMKAFESLKSFLQQLQQQLQQLQQQPPP [Htt-1, Htt peptide with four leucines in the polyQ region]
stoichiometry N [5]: 5 and 8

Molecule: B2
stoichiometry N [6]: ~0.5
Kd (α-Synuclein, P37840): 20800 nM
Ka [7]: 3.01e+06 M⁻¹
Kd [7]: 332 nM
stoichiometry N [7]: 0.5
